According to patent US20140271651A1 (AbbVie / Abbott, published 2014):
One block for each binder: values may come before it.

B1: GP73-hFc (human GP73 amino acids 63 to 400 fused at the C-terminus to human IgG1 Fc) (Fc fusion)
chain: ELKKNEFQGELEKQREQLDKIQSSHNFQLESVNKLYQDEKAVLVNNITTGERLIRVLQDQLKTLQRNYGRLQQDVLQFQKNQTNLERKFSYDLSQCINQMKEVKEQCEERIEEVTKKGNEAVASRDLSENNDQRQQLQALSEPQPRLQAAGLPHTEVPQGKGNVLGNSKSQTPAPSSEVVLDSKRQVEKEETNEIQVVNEEPQRDRLPQEPGREQVVEDRPVGGRGFGGAGELGQTPQVQAALSVSQENPEMEGPERDQLVIPDGQEEEQEAAGEGRNQQKLRGEDDYNMDENEAESETDKQAALAGNDRNIDVFNVEDQKRDTINLLDQREKRNHTLRSVECPPCPAPPVAGPSVFLFPPKPKDTLMISRTPEVTCVVVDVSHEDPEVQFNWYVDGMEVHNAKTKPREEQFASTFRVVSVLTVVHQDWLNGKEYKCKVSNKGLPAPIEKTISKTKGQPREPQVYTLPPSREEMTKNQVSLTCLVKGFYPSDIAVEWESNGQPENNYKTTPPMLDSDGSFFLYSKLTVDKSRWQQGNVFSCSVMHEALHNHYTQKSLSLSPGK
notes: Expressed in HEK293F, CHO or HepG2 cells; the host is named under assay; also called HEK expressed GP73-hFc; CHO expressed GP73-hFc

Key:
Aleuria aurantia lectin = target: T1, Aleuria aurantia lectin (Aleuria aurantia, UniProt P18891 2-313); assay: EIA, GP73-hFc captured on donkey anti-human IgG Fc, biotin AAL pre-mixed with free fucose
T1 construct: also called AAL; free AAL
T1 sequence (looked up): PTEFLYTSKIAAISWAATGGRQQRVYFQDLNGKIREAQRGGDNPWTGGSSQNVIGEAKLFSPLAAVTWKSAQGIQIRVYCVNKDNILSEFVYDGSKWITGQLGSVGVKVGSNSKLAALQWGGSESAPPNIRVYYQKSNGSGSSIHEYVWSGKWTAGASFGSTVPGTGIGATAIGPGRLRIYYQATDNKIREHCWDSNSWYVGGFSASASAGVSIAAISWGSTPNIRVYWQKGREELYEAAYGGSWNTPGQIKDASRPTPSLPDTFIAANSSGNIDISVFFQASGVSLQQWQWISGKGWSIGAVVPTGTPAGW
Protocol: The biotin labeled anti-GP73 mAbs were tested to determine if they were sensitive to the presence of fucose on the GP73-hFc antigen by EIA. Aleuria Aurantia Lectin (AAL) (Vector Laboratories) binds fucose with a high degree of specificity. Donkey anti-human IgG Fc (Jackson Immunoresearch) was coated on 96 well micro titer EIA plates at approximately 1 μg/mL. After the capture reagent was coated on the solid phase, the capture reagent was removed and the plates were blocked for 30 min using Protein-Free T20 (TBS) Blocking Buffer (Thermo Scientific). The wells were washed with distilled water. A 200 ng/mL solution of GP73-hFc antigen was added to the blocked plates and allowed to incubate at room temperature for at least 45 min then washed with distilled water. Fucose was added to the wells of a separate non-absorbing microtiter plate in serial dilutions starting from 1000 μg/mL Biotin labeled anti-GP73 mAbs were added to the plates at predetermined concentrations for each mAb ranging from 50 to 2000 ng/mL and incubated for 45 min at room temperature. The mixture was added to the microtiter plates with the captured GP73-hFc and allowed to incubate for 15-20 min at room temperature. Biotin labeled AAL was used as a positive control for the assay and a biotin labeled irrelevant mAb was used as the negative control. […] Plates were read at 492 nm and the results were analyzed.

bovine serum albumin [1] = target: T2, bovine serum albumin (bovine, UniProt P02769 25-607); assay: EIA, supernatant 1:25 captured on sheep anti-mouse IgG Fc, BSA in place of antigen
T2 construct: also called BSA
T2 sequence (P02769 25-607 limits assumed): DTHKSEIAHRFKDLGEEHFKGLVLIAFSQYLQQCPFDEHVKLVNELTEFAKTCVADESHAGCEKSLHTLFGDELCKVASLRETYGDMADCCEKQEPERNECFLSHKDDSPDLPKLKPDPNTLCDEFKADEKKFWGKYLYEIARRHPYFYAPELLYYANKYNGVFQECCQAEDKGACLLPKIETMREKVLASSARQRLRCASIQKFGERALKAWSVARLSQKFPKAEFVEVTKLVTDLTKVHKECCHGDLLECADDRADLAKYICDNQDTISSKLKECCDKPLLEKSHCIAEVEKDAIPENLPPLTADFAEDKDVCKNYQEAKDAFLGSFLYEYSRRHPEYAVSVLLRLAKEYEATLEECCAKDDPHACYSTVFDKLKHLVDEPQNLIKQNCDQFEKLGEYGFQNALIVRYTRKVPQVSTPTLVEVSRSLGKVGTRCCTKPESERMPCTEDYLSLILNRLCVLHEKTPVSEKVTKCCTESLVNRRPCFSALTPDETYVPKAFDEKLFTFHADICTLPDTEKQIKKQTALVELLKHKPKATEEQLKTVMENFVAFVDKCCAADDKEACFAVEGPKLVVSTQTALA
Protocol: (§1) Cell supernatant samples were analyzed for anti-GP73 antibodies by EIA. Sheep anti-mouse IgG Fc (Jackson Immunoresearch) was coated on 96 well micro-titer EIA plates at 1 μg/mL. After the capture reagent was coated on the solid phase, it was removed and the plates were blocked using a BSA/PBS block solution. The wells were washed with distilled water and cell supernatants were added to the blocked plates and allowed to incubate at room temperature for at least one hour. A mouse monoclonal antibody 14H4-23 (Drexel University) was used a positive control. The anti-mouse IgG Fc captured the anti-GP73 mouse antibody from the supernatant. Following the incubation, the supernatants were washed off using distilled water. An irrelevant mouse-human chimeric antibody was added to all wells and incubated at room temperature for 30 min to block any captured mouse antibodies that react with the human IgG Fc fusion protein linked to the GP73 antigen. The wells were washed with distilled water and GP73-hFc was added to the plates at 200 ng/mL and incubated for 30 min. Following this incubation, the antigen was washed from the plates using distilled water. Biotin labeled goat anti-GP73 was added to the plates at 200 ng/mL and incubated for 30 min at room temperature. The plates were washed and streptavidin-HRPO (Jackson Immunoresearch) (diluted to approximately 200 ng/mL) was added to the plates and allowed to incubate for 30 min. The plates were washed with distilled water and OPD substrate was used as the chromagen to generate signal. Plates were read at 492 nm and the results were analyzed.
Positive clones were expanded to 24 well plates in IMDM supplemented with 10% FBS and HT supplement. Following 5-14 days growth, the 24 well cultures were evaluated by EIA in the same manner as previously described, except the supernatant samples were titrated against GP73-hFc and BSA to eliminate non-specific protein binders. Once again the clones generating signal at least 3 times greater than background were considered positive and selected for further evaluation.

bovine serum albumin [2] = target: T2, bovine serum albumin; assay: sandwich EIA, rabbit anti-GP73 coated 1 ug/mL, BSA background, supernatant 1:125, HRP goat anti-mouse IgG Fc
Protocol: as §1
(§2) The 24 well cultures were then evaluated by EIA for their ability to form a sandwich with the rabbit anti-GP73 used as a capture reagent coated directly on the solid phase. The same EIA protocol previously described was used, except rabbit anti-GP73 antibody was coated at 1 μg/mL, the GP73-hFc was tested at 200 ng/mL, and a HRP labeled goat anti-mouse IgG FC antibody was used as the conjugate reagent to generate signal.

[3] = target: T3, E. coli expressed human GP73 (amino acids 63 to 400) with C-terminal 6xHis tag (human, UniProt Q8NBJ4 64-401); assay: Western blot on E. coli expressed GP73 antigen
T3 construct: No human Fc, not glycosylated; also called GP73 produced in E. coli; E. coli GP73
T3 sequence: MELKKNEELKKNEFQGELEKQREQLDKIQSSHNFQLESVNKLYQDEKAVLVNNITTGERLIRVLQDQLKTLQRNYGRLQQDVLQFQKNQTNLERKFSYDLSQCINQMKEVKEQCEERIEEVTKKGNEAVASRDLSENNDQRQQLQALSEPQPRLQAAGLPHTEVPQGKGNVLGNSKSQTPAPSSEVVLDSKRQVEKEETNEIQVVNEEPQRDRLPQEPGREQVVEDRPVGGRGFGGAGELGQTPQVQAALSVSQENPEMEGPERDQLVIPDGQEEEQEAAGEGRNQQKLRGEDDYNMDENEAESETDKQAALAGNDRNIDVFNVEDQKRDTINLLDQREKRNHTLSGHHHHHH
Protocol: The mammalian cell (HEK and CHO) expressed GP73-hFc or E. coli expressed GP73, as described above, were electrophoresed in a 4-20% SDS-PAGE gel. […] The nitrocellulose membrane was blocked with PBS buffer containing 5% non-fat dry milk and 0.05% Tween 20 for about 1 hr. The nitrocellulose membrane was incubated with an appropriate amount of anti-GP73 monoclonal antibody in 10 mL of 2.5% non-fat dry milk and 0.05% Tween 20 PBS buffer, pH 7.2. The nitrocellulose membranes were washed with 0.05% Tween 20/PBS, pH 7.2, incubated with goat anti-mouse IgG antibody conjugated with HRP for 1 hr at room temperature, and washed with 0.05% Tween 20/PBS buffer. Antibody bound to the GP73 protein was visualized by the addition of freshly prepared metal enhanced 3,3′-Diaminobenzidine in stable peroxide buffer (Pierce, Ill.).

[4] = target: B1; assay: SPR Biacore 2000, mAb captured on rabbit anti-mouse IgG, HEK GP73-hFc analyte 0.412-100 nM, 1:1 fit
Protocol: First, an approximately 13,000-15,000 RU rabbit anti-mouse IgG Capture Biosensor was created by amine-coupling rabbit anti-mouse IgG antibody (GE Healthcare) to a CM5 biosensor chip (GE Healthcare) via EDC/NHS/ethanolamine chemistry provided in an Amine Coupling Kit (GE Healthcare) after pre-treating the biosensor with duplicate injections of 100 mM HCl, 50 mM NaOH, and 0.1% SDS. Purified GP73 antibody and antigen (HEK GP73-hFc) were diluted into a running buffer (hereinafter “running buffer”) composed of HBS-EP buffer (GE Healthcare) supplemented with 0.1% BSA and 0.1% CM-Dextran. Each GP73 antibody was diluted to 1 μg/mL. The GP73-hFc antigen was diluted to concentrations of 0.412 to 100 nM using a 3-fold dilution series assuming an oligomeric molecular weight of 490 kDa (Abbott Laboratories).
The GP73-hFc antigen program was as follows. After equilibrating the rabbit anti-mouse IgG Capture Biosensor for 3 min at 5 μL/minute with running buffer, GP73 antibody (7-14 μL) was injected over individual flow cells with one flow cell being left blank as a reference flow cell. The flow cells were washed with running buffer for 3 min at a flow rate of 60 μL/min. 150 μL of HEK293 expressed GP73-hFc antigen at a random concentration was injected across the biosensor. The biosensor was subsequently re-equilibrated with running buffer for 5 min at a flow rate of 60 μL/minute. All biosensor surfaces were regenerated with one 30 μL injection of 10 mM glycine, pH 1.7 (GE Healthcare), at a flow rate of 10 μL/minute. All concentrations of HEK293 expressed antigen were tested in duplicate. The binding kinetics (association and dissociation) were monitored via sensorgrams during antigen injection and running buffer re-equilibration. The sensorgrams were double-referenced and fit to a 1:1 binding model using Scrubber 2.0 software (BioLogic Software Pty Ltd., Australia) to determine association and dissociation rates, as well as overall KD. Standard errors of determined values are reported in parentheses with respect to the smallest number place value.

[5] = target: B1; assay: sandwich EIA, rabbit anti-GP73 coated 1 ug/mL, GP73-hFc 200 ng/mL, supernatant 1:125, HRP goat anti-mouse IgG Fc
Protocol: as §1, §2

[6] = target: B1; assay: EIA, supernatant mAb captured on sheep anti-mouse IgG Fc, GP73-hFc 200 ng/mL, biotin goat anti-GP73/streptavidin-HRPO; background 0.06
Protocol: as §1

Binder: B1
binding result (Aleuria aurantia lectin): binds

B3: anti-GP73 monoclonal antibody 1A-3187 (antibody, V domains shown)
VH: QGQLQQSGAELMKPGASVKISCKATGYTIRSYWIEWVKQRPGHGLEWIGEILPGSGNTNYNEKFKGTATFTADTSSNTVYLHLSSLTSEDSAVYYCANGRGSYRYHWFAYWGQGTLVTVSP
VL: DIVLTQSPASLAVSLGQRATISCKASQSVDYDGDSYMNWYQQKPGQPPKVLIYAASNLESGIPARFSGSGSGTDFTLNIHPVEEEDAATYYCQQSNEDPYTFGGGTKLEMKR
notes: Biotin labelled in some assays
BSA Background OD (A492) (bovine serum albumin [1]): 0.11 OD (A492)
BSA Background OD (A492) (bovine serum albumin [2]): 0.09 OD (A492)

Other lines, results leading:

BSA Background OD (A492) (bovine serum albumin [1]): 0.04 OD (A492)
B2: anti-GP73 monoclonal antibody 1A-4246 (antibody, V domains shown)
VH: EVMLVESGGGLVKPGGSLKLSCAASGFTFSSYAMSWVRLTPEKRLEWVATISSGSSYTYYPDSVKGRFTISRDNVKSTLYLQMSSLRSEDTAMYYCARNWDGELHYYAMDYWGQGTSVTVSS
VL: QIVLTQSPAIMSASLGERVTMTCTASSSVSSSYLHWYQQKPGSSPKLWVYSTSSLASGVPARFSGSGSGTSYSLTINNMEAEDAATYFCHQYHRSPYTFGGGTKLEIKR
notes: Biotin labelled in some assays; also called mAb 1A-4246; 1A-4246-Bt

binding result [3]: binds
Kd [4]: 0.079 nM
koff [4]: 0.00025 s⁻¹
kon [4]: 3.18e+06 M⁻¹ s⁻¹
BSA Background OD (A492) (bovine serum albumin [2]): 0.1 OD (A492)
GP73-hFc OD (A492) [5]: 0.79 OD (A492)
OD (A492) [6]: 1.48 OD (A492)
B4: anti-GP73 monoclonal antibody 1B-3246 (antibody, V domains shown)
VH: DVKLVESGGGLVKPGGSLKLSCAASGFTFSSYTMSWVRQTPEKRLEWVATISRGGTYIYYPDSVKGRFTISRDNAKNTLYLQMSSLKSEDTAIYYCTREYFSGDTYDYFDYWGQGTTLTVSS
VL: EIVMTQAAFANPVTLGTSVSISCRSSKSLLHSNGITYLYWYLQKPGQSPQLLIYQMSNLASGVPDRFSSSGSGTDFTLRISRVEAEDVGIYYCAQNLELYTFGGGTKLEIKR
notes: Biotin labelled in some assays; also called mAb 1B-3246; 1B-3246-Bt
